This note sets out measurements from publication PMC3843118, “ABC transporter functions as a pacemaker for sequestration of plant glucosides in leaf beetles” (eLife, 2013).

Substrate in this data set: OCc1ccccc1O[C@@H]1O[C@H](CO)[C@@H](O)[C@H](O)[C@H]1O
Description: efflux of injected substrate from oocytes, HPLC-MS. Particulars: Xenopus oocytes expressing CpMRP vs water-injected control, modified Barth's medium pH 7.4, room temperature, oocyte volume assumed 1 µl. The data set is classed as cell-based, Chrysomela populi.

B1: CpMRP (Chrysomela populi) (protein)
chain: MDNGYQLKYDNPRDKANFISKLFFGWMIGLVRKATRTGLEVGDLYKTREADKSKKLADLLEKNWTKELKRAKLKGTKPSLSRALLKTFTMEYMGWGLLFFIQFVVLRSILPLILSYLISLFQESDMDDMVDRTNAMYICSGILITITAISIFFLHHTNKGLTVVGMKARIAVSSLIYRKITRLNQTSLGETAAGQVVNILSNDVNRFDLVVLSLHCLWTLPIQVALLFYLLWRQVQISCLAGILSMMIICIPGQGYVGKLTGVLRFRVAKKTDTRVKLMNEVISGIQVIKMYAWEKSFEKLIKLMRADEIKDLTSTSYLRGLLLSCVVFIERLTMFLTVTCYVLLGNVITADKVFSMAQFFNILQYGIAILYPMAVSYGAETLISIKRLQDFLLLEERKTPSIETAEDNGIQLSDVSASWTADTRTLRDITLNLPPGTLCAVVGPVGAGKSSLLQLLLGELPLSSGTMSLAGTISYSSQEPWLFQSSVRKNVLFGEPYQSSWYKQVVKVCALEKDFDQFPQRDQTIVGERGVSLSGGQRARINLARAIYRKTDVYLMDDPLSAVDTHVGRHLFDECIYRHLRGKTRILATHQLQYLKNADVIVVMNEGRIEAQGSFEELSDSELDFTKLLVSADETKGESKKLSLVEEPKIDYIKRLSVRSIMSTQSEFIEMMEYGDTEELGVDGNAHPFKDYCKAPRNVCLLVVVIISLILAQAVCSGADYWSSFWTRQEEIRHSTRARPVSDSSEVIQLVPLGNQTISLDGNKYTNENRDFSFDTFFDQVFLDNRIYKLLKTNYSMGVYGFLIIAAIVFTIGRSVLFCKLTMQASTNLHSDMFHTLLKAPMRFFDTNPSGRVLNRFSKDMGAVDEILPRTLLESIQIMLVMCGILVNIAVANPYMLVAMVVMGVCFYFLSKWYVTTASNVKHLEGFTKSPVFSHVNSTLNGITTIRAFRAEEVLCEEFDDQQDVHTSSWYLTLSCIASFGLWMDIVCLLFLACVTFSFVLMHSTSSVNGSLVGLAISQCLILTGMLQHGMRQTSEVINQLTSVERIRQYTKIDTEGPFETPIEKKPLKGWPNRGRLEFRNLVLRYVAEDDPVLRNLTFTVLPGEKVGIVGRTGAGKSSLISALFRLAPTSGSILIDGVDSKVLGLTDLRMKISIIPQEPVLFSATMRYNLDPFDEFDDRSLWDALEQVELKDAVESLDIMVTEGGNNFSLGQRQLICLARAILRNNNILVLDEATANVDQRTDSFIQKTIRRNFEDCTVLTIAHRLNTIMDSDKVLVMHFGEMVEYDHPHILLQLPEGHFHKMVLETGPAIYAQLKDVAEKAYHKNSRL
notes: cRNA expressed in Xenopus laevis oocytes
Turning to B1, the Km – broadly, the substrate concentration at which the rate is half of its maximum – is listed as 5.8 mM.
